Data published in article PMC12630144.

Target: WRKY50 (Arabidopsis thaliana, UniProt Q8VWQ5 1-173)
Experiment: EMSA

Chain of WRKY50 (Q8VWQ5 whole entry): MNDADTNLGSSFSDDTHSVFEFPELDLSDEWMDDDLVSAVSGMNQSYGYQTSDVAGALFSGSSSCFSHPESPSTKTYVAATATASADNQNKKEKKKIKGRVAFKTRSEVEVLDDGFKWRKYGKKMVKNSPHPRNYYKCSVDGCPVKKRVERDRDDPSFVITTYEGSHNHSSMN

B1: WK-box consensus probe (dsDNA)
DNA 1: ATCGTCTAGATCGATTTTTCCACACGATGCTAGTCGTCA
DNA 2: TGACGACTAGCATCGTGTGGAAAAATCGATCTAGACGAT
B1: binds.

B2: WT-box consensus probe (dsDNA)
DNA 1: ATCGTCTAGATCGAAAAAGTCAACCGATGCTAGTCGTCA
DNA 2: TGACGACTAGCATCGGTTGACTTTTTCGATCTAGACGAT
B2: binds.
